# From publication PMC3121797
# “And” between values parts separate entries of the source, which are not always exact repeats. Identical values can stand only once.
# Target: unliganded V1/V2 loop-deleted envelope glycoproteins
# Assay: ELISA
substance,measurement,value
C34-Ig fusion protein (from UniProt P04578 628-661) (Fc fusion),C34-Ig binding without sCD4 as percent of that with sCD4,20% and 45%
